± gives the half width of the 95% confidence interval.
experiment: folding stability dG unfold from trypsin proteolysis; higher = more stable
Summary of the method: (§1)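 Unfolding free energy was derived, per protease or combined, by relating Bayesian-fitted K50 values from sequencing counts to a sequence-predicted unfolded-state K50 and a shared folded-state K50. The underlying digests exposed cysteine-free mini-proteins under 80 residues, in a PA-tagged cDNA display construct, to trypsin and chymotrypsin at 11 threefold-diluted concentrations and to a no-protease condition. A filter kept only designs with AlphaFold2 dimer inter-PAE above 15.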

Sequence	folding stability dG unfold [kcal/mol]
SAGGSAGGSAGIWIPIKDPKEAVDYIQEWFHKKGGYDINIEPTEVYPDGWVRVEINIEPKSAGGSAGGSAGG [r17_430_TrROS]	0.151 ± 0.1
SAGGSAGGSAEDVVLKVKIEIPSSDGTLLEIDEAIYNPKPGTLHFKIRSPDGSEFEIEIPLDSAGGSAGGSA [r18_370_TrMRF]	0.725 ± 0.033
SAGKKKKVVITIKVEKSEEEVKELVKKLAEEAKKKGKEVVIKIEVDGKTYEFTLEDIKKLPPNAKVTLLSAG [r5_626_TrROS_Hall]	1.56 ± 0.11
SDMKIRIDDIDIQPLDEDGQPITINYKIEFGGQPVYFQIEIWVKPDGPVVIKIDIYNPDNGKPFEWTFPISA [r9_241_TrROS]	2.13 ± 0.09
SMIKIKVVEKKDGKYKIKIENKKTGKTFEFEFDTKEEAEEAEKNPGKTIYLSEEALKKLKKENITKVEKVSA [r9_390_TrROS_Hall]	0.442 ± 0.065
SAGLPIPEGATVKTLESSESVEGNKTVKTDKIIVTFPDGSTKEVEVVTTYDPNGNPTTTYIVGNKKIPLSAG [r5_507_JUSTAS]	1.45 ± 0.052
SAGMKITLPKGVKSIKVEEVNGKKVIYIEVDGKIFVYDLKTGKLYIYDKKTGEKKEITIKKGDTITLKSAGG [r19_138_TrROS_Hall]	1.03 ± 0.028
SAGGEIERDPNGWIRMTYTLPGFGYKIEITFRVPDNGMMQIEDIDIEPIPPVPPPPPPKYDPNGEWKYSAGG [r13_646_TrROS]	1.64 ± 0.08
SAGGSAGGMIREIEVKVSPEFPSVEEVVEELKAKGYEVKRIEEDPETDEVIVYVVKKVPEEEHHSAGGSAGG [r6_604_JUSTAS]	1.05 ± 0.068
SAPVVVVETIPDGGVLIVPAVFEPDKLLEYVEEIVNKIKPKGAEVEAKVIKVEPFEDFVVVTFEVKVKPSAG [r14_345_TrMRF]	1.69 ± 0.12
SAGGSAGGSAGGSVSELPPISTKTTTTVTTTSDGTKVVYTTTTYSDGTTTTTSGPVPAASAGGSAGGSAGGS [r10_682_JUSTAS]	0.565 ± 0.049
SAGGSAGGGYELRVTVYDPRTGKPVAEATFTATSPEEAEARFEEIRRALPPEYLVFAEIRPVPESAGGSAGG [r6_688_TrMRF]	4.94 ± 0.38
SLKPGETKTLTLLIRTKDPEKTAEELAEEARKEIEELLPPGVKIEVKVTSVEPLPETGEVDVTVEVTVTASA [r9_706_TrMRF]	3.02 ± 0.19
SAGGSAGGSAGGDPNDKPKEERRIKIKVRPTNVQRDPDNGMLWYSWRLEGLSITIMIPASAGGSAGGSAGGS [r10_962_TrROS]	1.86 ± 0.08
SAGGLPGLSAEELARRLAERLREALAAAGYTVEIELTVEITVTDEDGRTRTFTFTLRIRVEPPPPPPSAGGS [r16_550_TrROS_Hall]	4.05 ± 0.069
SAGGSAGGSASPVPVVEVEITPVKLPGDETAAKITVLLEGDGEPVVVWFDSKDVEKVIEEVLASAGGSAGGS [r20_238_JUSTAS]	0.293 ± 0.12
SAGMKTVTVKVKISEEEREKLKELGFEIVEEKEDYLVIKVKVPPELSEEELEEAKKEGMTLEEALAKLSAGG [r19_115_TrROS_Hall]	2.05 ± 0.12
SAMKTYTLPNATITVETLPGDNTIVVTVTDPESGKTTTTTVSLDDPSLTIENIIARIEEQIKAGKPVSLSAG [r14_157_JUSTAS]	2.33 ± 0.1
SAGGSAGGSAGGMTITVVTEESPGPFKTVTVTTTTPLPNGTLATTTTTTFLPVSPDEPVSAGGSAGGSAGGS [r10_241_JUSTAS]	1.52 ± 0.044
SAGGSAGGNKIWIPITITFMVPVRKDPDGKPKLSPEDPDRWKPVEFEIPIEIDPDPDNGKIKIWSAGGSAGG [r6_537_TrROS]	1.5 ± 0.042
SAMVRIERLPDGSLLVVVESEGKEEGLEFIERFIEEIKSLGIDAEIELLSIEEIPEDPKRYRATFLIKASAG [r14_119_TrMRF]	4.83 ± 0.22

Sequence	folding stability dG unfold [kcal/mol]
SAGGEKRYLVRVRAYYRFEEGERELDLEVEVTSPEEAKELLEKIATRLRKLYPDRIRIEVEIRPLEESAGGS [r16_475_TrMRF]	4.53 ± 0.17
SAGGSAGGSAGMVITKDPNGNYTVDLVLPDGTPLDSGTITLEEVEKILKERGIPLKEIFGSAGGSAGGSAGG [r11_521_JUSTAS]	-0.271 ± 0.27
SAGEEKEAKALAEQYAAEFAPKLGMKYEVPEVKVEKDEKTGKITVTVTVKFTFPEPRTVTKKFTIVVPKSAG [r5_381_JUSTAS]	2.4 ± 0.14
SMKPITLEEALKLAEKLIEEGAKEVVIIRREDGTLLAIMEAEEASPEKVKEFLEANPNVRVLRITGSKEESA [r9_568_TrMRF]	3.17 ± 0.15
SAGGMYLVKIKVKIDSPTSEKERDLYILAEPDTDVEEIVKKIPGAKNIEIEVEIIPPSENPEIASNPLSAGG [r19_339_JUSTAS]	0.645 ± 0.12
SAGGSAGGSAMKIELTVPPGEEAELEARAKALAEAEGVEVVSVSKSPEGTYTMTVLNTVPPESAGGSAGGSA [r18_351_JUSTAS]	0.532 ± 0.058
SAGGRVRLEEVEILPPLEDPEDNPDRPLLLLRVRARVEYDTPEGPREEERELVLVVSPERLEEALEALSAGG [r13_149_TrMRF]	0.794 ± 0.075
SAGGSPWIFVIKIEWEPRDPDGKKKKYEYSIVITATPNQLDELLEQIKKAPPGYKIKEVKIEVFPFSAGGSA [r2_75_TrROS]	2.65 ± 0.18
SAGGSAGGGMGPASFYIVTVDPNNPNVTKVESLSPSVDISLYRKKPFPIKTFSASNIEKLLKELSAGGSAGG [r6_864_JUSTAS]	0.334 ± 0.12
SAGGSAGGSAGEPVEVTPLSTETVPDSDTTVTYYKVTYPGGKEAIRTVYSDGTETTTPLPSAGGSAGGSAGG [r11_637_JUSTAS]	0.915 ± 0.12
SAGGSAGGSAGMKKNEKLITELTFEGPDVYVKITIEKTFDPEGNKIYFKAKIEVFAPGELSAGGSAGGSAGG [r11_237_TrMRF]	2.83 ± 0.097
SAGGTIFIPWEEAEEFIENAFENGEDIEIEFFLDDGWWYKFTITGPDIDLRVVEVVPMPPPPEDPGKKSAGG [r13_839_TrROS]	0.836 ± 0.056
SAGGSAPSPEVPLWRFEAPGASGGVALIEGYPGGELRVVFFTDDGRPVELTFPVVVLPPAPLEELFSAGGSA [r15_478_TrMRF]	1.51 ± 0.039
SAGMTIEIEIPASTSAEEAVERVEAIVEEVRKAGKKFELTIKTSDPALAAAVRAALEAAGVPVTVEVDSAGG [r19_268_JUSTAS]	4.07 ± 0.12
SAGGMKVEKNTIYIEVEKDMSAEEVAKKIAEELKKKGLKVEIKVEKKEDGTKVIRIKVDGKEIEIYASAGGS [r16_771_TrROS_Hall]	1.84 ± 0.094
SAGGSAGGSAGGKKIIKVNLRIYDPVNPKVTVLPIEAPFDEIIKIAKEIAAPDQVVEISSAGGSAGGSAGGS [r10_397_TrMRF]	-0.844 ± 0.16
SAGEPEKVTITLVDEETGVVITIEIDKETKKITITVESEEERERARELAERLAKELEEAGIKVEILPPSAGG [r19_354_TrROS_Hall]	2.91 ± 0.14
SAGMEATIEIVGHPGDKEAIAVLRPEDKTVVIYKNKDGSYTVEVFEPNPARLIERKELPLEEAIKEALSAGG [r19_188_TrMRF]	-0.343 ± 0.12
SADLAKNIAKKLNPDIKDVQIKDIELQPNPDNGYPVIKVELEVKMNDGPYKKSIWFMPNGFQIKIQPVPSAG [r14_397_TrROS]	0.783 ± 0.17
SAGGSAGGSAAISIDLPPNSVLNISIPVTEPGGKPYTVKISVYSTPLPSNSYELNIKVTIVSAGGSAGGSAG [r3_347_JUSTAS]	3.56 ± 0.15
SMFTLVLPDGSVIPVIKGDSTTTVYDPRTGRTLPIPSSTVEENSIEEIVERILAELEKLGVPAQPVEILESA [r9_1211_JUSTAS]	1.99 ± 0.035

experiment: folding stability dG unfold from chymotrypsin proteolysis; higher = more stable
Summary of the method: as §1

Sequence	folding stability dG unfold [kcal/mol]
SAGGSAGGSAGIWIPIKDPKEAVDYIQEWFHKKGGYDINIEPTEVYPDGWVRVEINIEPKSAGGSAGGSAGG [r17_430_TrROS]	1.26 ± 0.18
SAGGSAGGSAEDVVLKVKIEIPSSDGTLLEIDEAIYNPKPGTLHFKIRSPDGSEFEIEIPLDSAGGSAGGSA [r18_370_TrMRF]	1.44 ± 0.13
SAGKKKKVVITIKVEKSEEEVKELVKKLAEEAKKKGKEVVIKIEVDGKTYEFTLEDIKKLPPNAKVTLLSAG [r5_626_TrROS_Hall]	1.67 ± 0.096
SDMKIRIDDIDIQPLDEDGQPITINYKIEFGGQPVYFQIEIWVKPDGPVVIKIDIYNPDNGKPFEWTFPISA [r9_241_TrROS]	2.83 ± 0.08
SMIKIKVVEKKDGKYKIKIENKKTGKTFEFEFDTKEEAEEAEKNPGKTIYLSEEALKKLKKENITKVEKVSA [r9_390_TrROS_Hall]	1.24 ± 0.087
SAGLPIPEGATVKTLESSESVEGNKTVKTDKIIVTFPDGSTKEVEVVTTYDPNGNPTTTYIVGNKKIPLSAG [r5_507_JUSTAS]	1.19 ± 0.058
SAGMKITLPKGVKSIKVEEVNGKKVIYIEVDGKIFVYDLKTGKLYIYDKKTGEKKEITIKKGDTITLKSAGG [r19_138_TrROS_Hall]	1.79 ± 0.067
SAGGEIERDPNGWIRMTYTLPGFGYKIEITFRVPDNGMMQIEDIDIEPIPPVPPPPPPKYDPNGEWKYSAGG [r13_646_TrROS]	2.25 ± 0.041
SAGGSAGGMIREIEVKVSPEFPSVEEVVEELKAKGYEVKRIEEDPETDEVIVYVVKKVPEEEHHSAGGSAGG [r6_604_JUSTAS]	1.04 ± 0.17
SAPVVVVETIPDGGVLIVPAVFEPDKLLEYVEEIVNKIKPKGAEVEAKVIKVEPFEDFVVVTFEVKVKPSAG [r14_345_TrMRF]	1.7 ± 0.032
SAGGSAGGSAGGSVSELPPISTKTTTTVTTTSDGTKVVYTTTTYSDGTTTTTSGPVPAASAGGSAGGSAGGS [r10_682_JUSTAS]	1.14 ± 0.067
SAGGSAGGGYELRVTVYDPRTGKPVAEATFTATSPEEAEARFEEIRRALPPEYLVFAEIRPVPESAGGSAGG [r6_688_TrMRF]	5.19 ± 0.13
SLKPGETKTLTLLIRTKDPEKTAEELAEEARKEIEELLPPGVKIEVKVTSVEPLPETGEVDVTVEVTVTASA [r9_706_TrMRF]	3.01 ± 0.06
SAGGSAGGSAGGDPNDKPKEERRIKIKVRPTNVQRDPDNGMLWYSWRLEGLSITIMIPASAGGSAGGSAGGS [r10_962_TrROS]	3.43 ± 0.035
SAGGLPGLSAEELARRLAERLREALAAAGYTVEIELTVEITVTDEDGRTRTFTFTLRIRVEPPPPPPSAGGS [r16_550_TrROS_Hall]	5.15 ± 0.074
SAGGSAGGSASPVPVVEVEITPVKLPGDETAAKITVLLEGDGEPVVVWFDSKDVEKVIEEVLASAGGSAGGS [r20_238_JUSTAS]	0.847 ± 0.025
SAGMKTVTVKVKISEEEREKLKELGFEIVEEKEDYLVIKVKVPPELSEEELEEAKKEGMTLEEALAKLSAGG [r19_115_TrROS_Hall]	1.71 ± 0.077
SAMKTYTLPNATITVETLPGDNTIVVTVTDPESGKTTTTTVSLDDPSLTIENIIARIEEQIKAGKPVSLSAG [r14_157_JUSTAS]	2.16 ± 0.054
SAGGSAGGSAGGMTITVVTEESPGPFKTVTVTTTTPLPNGTLATTTTTTFLPVSPDEPVSAGGSAGGSAGGS [r10_241_JUSTAS]	0.208 ± 0.27
SAGGSAGGNKIWIPITITFMVPVRKDPDGKPKLSPEDPDRWKPVEFEIPIEIDPDPDNGKIKIWSAGGSAGG [r6_537_TrROS]	0.701 ± 0.25
SAMVRIERLPDGSLLVVVESEGKEEGLEFIERFIEEIKSLGIDAEIELLSIEEIPEDPKRYRATFLIKASAG [r14_119_TrMRF]	6.12 ± 0.27

Reference: the supplement of paper PMC12764529
